Paper PMC2275160
Where a chain is given by its changes, count along the chain named.

What was measured:
Experiment in all cases: EMSA
His6-Glis3(ZFD)3m = molecular target: T1, His6-Glis3(ZFD)3m (mouse, UniProt Q6XP49 345-496, C414A)
T1 sequence: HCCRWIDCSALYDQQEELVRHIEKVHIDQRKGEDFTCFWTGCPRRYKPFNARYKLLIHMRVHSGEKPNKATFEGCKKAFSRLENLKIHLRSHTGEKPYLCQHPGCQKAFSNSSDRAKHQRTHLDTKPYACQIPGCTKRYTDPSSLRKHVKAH

His6-Glis3(ZFD)2m = molecular target: T2, His6-Glis3(ZFD)2m (mouse, UniProt Q6XP49 345-496, C381A)
T2 sequence: T1 sequence with C37A, A70C

His6-Glis3(ZFD)4m = molecular target: T3, His6-Glis3(ZFD)4m (mouse, UniProt Q6XP49 345-496, C444A)
T3 sequence: T1 sequence with A70C, C100A

His6-Glis3(ZFD)5m = molecular target: T4, His6-Glis3(ZFD)5m (mouse, UniProt Q6XP49 345-496, C474A)
T4 sequence: T1 sequence with A70C, C130A

His6-Glis3(ZFD)1m = molecular target: T5, His6-Glis3(ZFD)1m (mouse, UniProt Q6XP49 345-496, C347A)
T5 sequence: T1 sequence with C3A, A70C

His6-Glis3(ZFD) = molecular target: T6, His6-Glis3(ZFD) (mouse, UniProt Q6XP49 345-496)
T6 sequence: T1 sequence with A70C

B1: Glis-BS consensus (dsDNA)
DNA 1: CGTGGGGGGTC
DNA 2: GACCCCCCACG
His6-Glis3(ZFD)3m
  binding result: no binding
His6-Glis3(ZFD)2m
  binding result: no binding
His6-Glis3(ZFD)4m
  binding result: no binding
His6-Glis3(ZFD)5m
  binding result: no binding
His6-Glis3(ZFD)1m
  binding result: no binding
His6-Glis3(ZFD)
  Kd: 3.69 ± 0.26 nM
